Source: patent US6489446 (HSC RESEARCH AND DEVELOPMENT LIMITED PARTNERSHIP, dated 2002)

T1: matrix of insoluble elastin prepared from chicken aortic tissue (chicken, UniProt P07916 25-750)
T1 construct: mature; Insoluble cross-linked tissue matrix, not a defined soluble protein; also called chicken elastin; chicken elastin matrix
T1 sequence (looked up): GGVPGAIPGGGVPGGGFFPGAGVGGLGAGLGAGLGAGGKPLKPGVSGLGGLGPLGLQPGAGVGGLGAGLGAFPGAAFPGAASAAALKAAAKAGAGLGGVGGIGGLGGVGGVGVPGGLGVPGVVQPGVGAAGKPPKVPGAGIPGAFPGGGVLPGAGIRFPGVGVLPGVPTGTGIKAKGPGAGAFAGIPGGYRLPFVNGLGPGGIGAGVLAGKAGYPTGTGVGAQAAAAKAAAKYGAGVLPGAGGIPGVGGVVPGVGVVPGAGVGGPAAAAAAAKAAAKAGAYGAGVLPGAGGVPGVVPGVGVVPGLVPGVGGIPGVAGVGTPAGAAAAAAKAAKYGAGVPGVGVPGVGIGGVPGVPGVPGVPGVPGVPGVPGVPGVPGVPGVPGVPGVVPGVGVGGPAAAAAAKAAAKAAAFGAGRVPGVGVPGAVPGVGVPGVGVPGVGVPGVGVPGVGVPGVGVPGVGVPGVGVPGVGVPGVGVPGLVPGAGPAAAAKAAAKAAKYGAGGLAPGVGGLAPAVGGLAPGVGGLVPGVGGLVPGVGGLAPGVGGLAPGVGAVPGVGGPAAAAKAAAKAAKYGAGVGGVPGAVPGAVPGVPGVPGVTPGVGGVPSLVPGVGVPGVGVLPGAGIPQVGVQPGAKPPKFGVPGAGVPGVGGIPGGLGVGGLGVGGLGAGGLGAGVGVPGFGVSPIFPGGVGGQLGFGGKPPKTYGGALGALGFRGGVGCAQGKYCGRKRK


How the values were obtained:
[1] = biological target: T1, matrix of insoluble elastin prepared …; assay: estimate from bound radiolabelled MFU-1, assuming a 6 nm cross-sectional diameter
Protocol: A matrix of insoluble elastin was prepared from chicken aortic tissue by a cyanogen bromide extraction method. This insoluble, non-human elastin matrix was incubated for 16 hours at 37° in phosphate-buffered saline, at pH 7.4, in the presence of radioactively labeled human MFU-1 prepared as described above. The tissue was then washed extensively with phosphate-buffered saline at pH 7.4.
Estimation of surface coverage assumed a cross-sectional diameter of the human MFU-1 of 6 nm. It was estimated that about 1–3 µg of human MFU-1 per mg chicken elastin matrix remained firmly associated with the insoluble matrix of chicken elastin.

[2] = biological target: the molecule itself; assay: coacervation of MFU-2 in solution; self-association

| Binder | surface coverage of the chicken elastin matrix [1] | binding result [2] |
| --- | --- | --- |
| Minimal Functional Unit-1 (MFU-1) of human elastin (other, radioactively labeled valine and glycine (only in the chicken elastin experiments of Example 4), also called human elastin MFU-1; Fraction 1) GAGGFPGFGVGVGGIPGVAGVPGVGGVPGVGGVPGVGISPEAQAAAAAKAAKYGVGTPAAAAAKAAAKAAQFGLVPGVGVAPGVGVAPGVGVAPGVGLAPGVGVAPGVGVAPGVGVAPAIGPGGVA | ≤ 200 fold | – |
| MFU-2 of human elastin (other, Tandem duplicate of MFU-1, expressed with techniques similar to those for MFU-1) FPGFGVGVGGIPGVAGVPGVGGVPGVGGVPGVGISPEAQAAAAAKAAKYGVGTPAAAAAKAAAKAAQFGLVPGVGVAPGVGVAPGVGVAPGVGLAPGVGVAPGVGVAPGVGVAPAIGPEAQAAAAAKAAKYGVGTPAAAAAKAAAKAAQFGLVPGVGVAPGVGVAPGVGVAPGVGLAPGVGVAPGVGVAPGVGVAPAIGP | – | binds |
